Source: paper PMC10284548

Assays:
AsLOV2 [1] = assay: single-molecule force spectroscopy (dual-beam optical tweezers); jump experiments between 0 and 20.5 ± 1 pN to obtain unbinding and rebinding lifetimes; AsLOV2 and Zdk2 on one chain joined by (GGS)42; PBS, 1 mM TCEP, pH 7.4
AsLOV2(V416L) [2] = assay: as above
AsLOV2 [3] = assay: single-molecule force spectroscopy (dual-beam optical tweezers); constant velocity (force-extension) experiments, 200 and 500 nm/s; AsLOV2 and Zdk2 on one chain joined by (GGS)42, tethered by DNA handles between two beads; PBS, 1 mM TCEP, pH 7.4, oxygen scavenger; dark
AsLOV2(V416L) [4] = assay: as above
AsLOV2 [5] = assay: single-molecule force spectroscopy (dual-beam optical tweezers); constant load of 11 or 16 pN, dark; AsLOV2 and Zdk2 on one chain joined by (GGS)42, tethered by DNA handles between two beads; PBS, 1 mM TCEP, pH 7.4
AsLOV2 [6] = assay: single-molecule force spectroscopy (dual-beam optical tweezers); constant load of 11 or 16 pN under 488-nm light (laser intensity 3 and 30%, pooled); AsLOV2 and Zdk2 on one chain joined by (GGS)42; PBS, 1 mM TCEP, pH 7.4

average lifetime of the peptide-bound state under force (AsLOV2 [1]): 0.56 s | rebinding time at zero force (AsLOV2 [1]): 0.13 s | average lifetime of the peptide-bound state under force (AsLOV2(V416L) [2]): 0.18 s | rebinding time at zero force (AsLOV2(V416L) [2]): 0.44 s | unbinding force (AsLOV2 [3]): 24 pN | unbinding force (AsLOV2(V416L) [4]): 22 pN | average lifetime of the bound state at 11 pN, without light (AsLOV2 [5]): 174 s | average lifetime of the bound state at 16 pN, without light (AsLOV2 [5]): 74 s | percent of experiments at 11 pN without dissociation within 9 min (AsLOV2 [5]): 30% | average lifetime of the bound state at 11 pN, with 488-nm light (AsLOV2 [6]): 47 s | average lifetime of the bound state at 16 pN, with 488-nm light (AsLOV2 [6]): 45 s
Substance: Zdk2 (designed binder)
